Data published in patent US11332546B2, “Protease inhibitory antibodies and methods of use thereof” (The Regents of The University of California, priority 2019, dated 2022).

Experiments:
[1] = target: T1, cdMMP-12 mutant D4 (Homo sapiens, UniProt P39900, A167E/A173P/A252Q/H206S/I245T/K233R/M156E/N119Q/N126H/R135E/T215V/V161I/Y113D/Y132K); test: Bio-layer interferometry (BLItz) on cdMMP-12 D4; type: binding; settings: read-out: Affinity on cdMMP-12 D4
T1 construct: hexahistidine (C); made in house; host or cells: E. coli BL21, pET32b (cytoplasmic, soluble fraction)
T1 sequence (P39900 106-263 Y113D/N119Q/N126H/Y132K/R135E/M156E/V161I/A167E/A173P/H206S/T215V/K233R/I245T/A252Q): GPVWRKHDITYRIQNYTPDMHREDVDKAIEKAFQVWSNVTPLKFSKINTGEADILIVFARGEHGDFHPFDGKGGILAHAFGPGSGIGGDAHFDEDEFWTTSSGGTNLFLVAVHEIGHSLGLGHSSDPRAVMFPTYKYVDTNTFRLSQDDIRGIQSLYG
Procedure: ELISA and binding kinetics measurement Purified cdMMP-9, cdMMP-12 D4/wt, and cdMMP-14 were biotinylated by using EZ-Link Sulfo-NHS-LC kit (Thermo Fisher). On streptavidin coated ELISA plates, 5 μg/mL biotinylated cdMMPs were immobilized and incubated with two-fold serially diluted purified Fabs. Bound Fabs were detected with anti-Fab-HRP (Sigma-Aldrich), and signals were developed by TMB substrate (Thermo Scientific) and measured using a microplate reader (BioTek). In competitive ELISA, 500 nM Fabs of interest were mixed with 0.01-10 μM GM6001 or 0.8-200 μM nTIMP-2 for 30 min, then transferred to ELISA plates coated with cdMMP-12 D4/wt for incubation 15 min at room temperature. Bound Fabs were detected using anti-Fab-HRP. For bio-layer interferometry (using ForteBio BLItz), biotinylated cdMMP-12 D4/wt was loaded onto streptavidin biosensors. After washing to establish baselines, 50, 100, or 200 nM of Fabs were associated with immobilized cdMMP-12 D4/wt for 200 sec, then dissociated into 50 mM HEPES, 150 mM NaCl pH 7.5 for 120 sec. Averages of measured kon and koff values were determined for KD calculations.

[2] = target: T1, cdMMP-12 mutant D4; test: FRET peptide inhibition assay, cdMMP-12 D4; type: biochemical; settings: cdMMP-12 D4, FRET peptide, 31-500 nM Fab
Procedure: (§1) FRET peptide inhibition assays In 96-well assay plates (Corning), 60/250/350/10/10/30 nM of (cd)MMP-1/-7/-9/-12 D4/-12 wt/-14 were preincubated with 1 nM-1 μM purified Fabs for 30 min at room temperature then 1 μM substrate M-2350 (Bachem) was added. Generated fluorescent signals (λEx=328 nm, λEm=393 nm) were monitored at 37° C. to measure the initial velocities. To calculate inhibition constants (KIs), data were fit with the equations for slow tight-binding inhibitors. The inhibition type of the Fabs was determined using the initial velocities of cdMMP-12 D4 as a function of substrate concentration (250-2000 nM) at various Fab concentrations (31-500 nM). The values of Vmax and Km were derived from linearization in accordance with the Lineweaver-Burk equation.

[3] = target: T2, cdMMP-12 wt (Homo sapiens, UniProt P39900); test: FRET peptide inhibition assay, cdMMP-12 wt; type: biochemical; settings: toward cdMMP-12 wild type
T2 construct: hexahistidine (C); made in house; host or cells: E. coli BL21 (pET32b, cytoplasmic)
T2 sequence (P39900 106-263): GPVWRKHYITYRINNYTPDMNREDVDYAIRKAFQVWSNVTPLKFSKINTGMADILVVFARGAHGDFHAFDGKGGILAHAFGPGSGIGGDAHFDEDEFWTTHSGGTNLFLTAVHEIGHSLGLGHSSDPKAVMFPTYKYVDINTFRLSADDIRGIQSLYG
Procedure: as §1

[4] = target: T2, cdMMP-12 wt; test: Elastin-FITC hydrolysis inhibition, cdMMP-12 wt; type: biochemical; settings: 7 nM wt cdMMP-12, 37° C., 12 h
Procedure: Inhibition tests with macromolecular substrates 10 μg/mL FITC-conjugated elastin (AnaSpec) was incubated with 7 nM cdMMP-12 D4/wt and 2-2000 nM purified Fab in 50 mM Tris-HCl, 150 mM NaCl, 5 mM CaCl2), 100 μM ZnCl2 pH 7.5. Generated fluorescent signals were measured at 12 h with λEx of 490 nm and λEm of 520 nm. For inhibition assays on fibronectin, 200 nM fibronectin (Corning) was incubated with 200-350 nM cdMMP-12 wt and 2 μM GM6001 or 0.1-6 μM Fabs in 50 mM HEPES, 150 mM NaCl pH 7.5 at 37° C. for 2-4 h. The samples were separated on 5% non-reducing SDS-PAGE and analyzed by western blotting with anti-Fibronectin antibody (Abcam) and chemiluminescent substrate (Thermo Scientific). For inhibition assays on modified TEM-1 carrying cleavable sequence ([…] (SEQ ID NO:134)) and a N-terminal HA tag, 250 nM modified TEM-1 was incubated with 700 nM cdMMP-12 wt and 10 μM Fabs in 50 mM HEPES, 150 mM NaCl pH 7.5 at 37° C. for 4 h. The samples were separated on 12% non-reducing SDS-PAGE, and the modified TEM-1 was visualized by western blotting using anti-HA antibody (Invitrogen) and chemiluminescent substrate. Assays without cdMMP-12s or Fabs were performed as controls.

[5] = target: T2, cdMMP-12 wt; test: Fibronectin proteolysis inhibition, cdMMP-12 wt (western blot); type: biochemical; settings: 6 μM Fab; 350 nM wt cdMMP-12, 200 nM fibronectin, 37° C.
Procedure: Inhibition tests with macromolecular substrates 10 μg/mL FITC-conjugated elastin (AnaSpec) was incubated with 7 nM cdMMP-12 D4/wt and 2-2000 nM purified Fab in 50 mM Tris-HCl, 150 mM NaCl, 5 mM CaCl2), 100 μM ZnCl2 pH 7.5. Generated fluorescent signals were measured at 12 h with λEx of 490 nm and λEm of 520 nm. […] The samples were separated on 5% non-reducing SDS-PAGE and analyzed by western blotting with anti-Fibronectin antibody (Abcam) and chemiluminescent substrate (Thermo Scientific). […] Assays without cdMMP-12s or Fabs were performed as controls.

[6] = target: T3, MMP-1 (Homo sapiens, UniProt P03956); test: FRET peptide inhibition assay, MMP-1; type: biochemical
T3 construct: purchased AnaSpec
T3 sequence (P03956 100-469): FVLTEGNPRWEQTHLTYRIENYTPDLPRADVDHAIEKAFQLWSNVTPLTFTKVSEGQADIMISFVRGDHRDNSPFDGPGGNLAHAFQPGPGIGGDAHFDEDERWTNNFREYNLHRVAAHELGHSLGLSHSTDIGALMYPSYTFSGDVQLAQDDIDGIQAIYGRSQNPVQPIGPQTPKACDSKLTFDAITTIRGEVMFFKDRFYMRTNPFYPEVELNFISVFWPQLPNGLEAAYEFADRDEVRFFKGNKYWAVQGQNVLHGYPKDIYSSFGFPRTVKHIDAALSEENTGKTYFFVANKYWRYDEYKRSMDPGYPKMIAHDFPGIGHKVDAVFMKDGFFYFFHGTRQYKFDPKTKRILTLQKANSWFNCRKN
Procedure: as §1

[7] = target: T4, MMP-7 (Homo sapiens, UniProt P09237); test: FRET peptide inhibition assay, MMP-7; type: biochemical
T4 construct: purchased AnaSpec
T4 sequence (P09237 95-267): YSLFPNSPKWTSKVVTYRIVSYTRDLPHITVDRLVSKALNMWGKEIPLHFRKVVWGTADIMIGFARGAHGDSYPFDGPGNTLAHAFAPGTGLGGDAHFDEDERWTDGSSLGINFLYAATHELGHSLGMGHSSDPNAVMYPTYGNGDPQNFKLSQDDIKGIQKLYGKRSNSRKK
Procedure: as §1

[8] = target: cdMMP-9; test: FRET peptide inhibition assay, cdMMP-9 (Example 2); type: biochemical; settings: FRET peptide; read-out: K1 toward cdMMP-9
cdMMP-9, sequence (P14780 with tags, fused parts or gaps DEL216-390 limits assumed): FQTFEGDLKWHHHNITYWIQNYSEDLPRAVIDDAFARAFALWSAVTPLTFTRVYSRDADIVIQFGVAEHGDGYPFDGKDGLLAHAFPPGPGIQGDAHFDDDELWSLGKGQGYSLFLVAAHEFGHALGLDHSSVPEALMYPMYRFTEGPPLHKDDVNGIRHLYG
Procedure: as §1

[9] = target: cdMMP-9; test: Bio-layer interferometry on cdMMP-9; type: binding; settings: read-out: KD toward cdMMP-9
[10] = target: T1, cdMMP-12 mutant D4; test: Proteolytic stability of Fabs with cdMMP-12 D4; type: physicochemical; settings: 2 μM Fab, 2 μM cdMMP-12 D4, 4 h, 37° C.
Procedure: (§2) Proteolytic stability tests 2 μM purified Fabs were incubated with 2 μM cdMMP-12 wt/D4 in 50 mM HEPES, 150 mM NaCl pH 7.5 at 37° C. for 4 h. Samples were analyzed by using 12% non-reducing SDS-PAGE and stained with Coomassie blue. Densitometric interpretation was conducted using a ChemiDoc imager (Bio-Rad).

[11] = target: T2, cdMMP-12 wt; test: Proteolytic stability of Fabs with cdMMP-12 wt; type: physicochemical; settings: 2 μM Fab, 2 μM cdMMP-12 wt, 4 h, 37° C.
Procedure: as §2

[12] = target: cdMMP-14 (Homo sapiens, UniProt P50281); test: Bio-layer interferometry on cdMMP-14; type: binding; parameters: human MMP-14 (residue 114-320); hexahistidine (C); made in house; host or cells: E. coli periplasm; settings: read-out: KD toward cdMMP-14
[13] = target: T5, BACE1 (Homo sapiens, UniProt P56817); test: Binding kinetics by biolayer interferometry, Fabs/IgGs on BACE1; settings: IgG format
T5 construct: human β-secretase 1 (BACE1, residue 46-457); made in house; host or cells: HEK293F (secreted, protein A purified)
T5 sequence (P56817 46-457): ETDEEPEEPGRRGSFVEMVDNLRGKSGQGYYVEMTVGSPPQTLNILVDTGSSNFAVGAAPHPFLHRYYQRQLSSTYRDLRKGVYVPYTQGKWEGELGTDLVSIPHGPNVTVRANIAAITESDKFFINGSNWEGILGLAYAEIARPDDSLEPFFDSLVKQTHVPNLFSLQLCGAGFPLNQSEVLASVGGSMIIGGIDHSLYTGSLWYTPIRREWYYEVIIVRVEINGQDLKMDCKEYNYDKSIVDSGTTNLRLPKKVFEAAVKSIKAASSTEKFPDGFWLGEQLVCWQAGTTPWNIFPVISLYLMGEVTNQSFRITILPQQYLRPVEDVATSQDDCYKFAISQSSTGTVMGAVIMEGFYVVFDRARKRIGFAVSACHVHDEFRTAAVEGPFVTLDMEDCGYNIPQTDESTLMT
Procedure: Binding kinetics of produced antibodies towards associated protease targets were analyzed by using biolayer interferometry (ForteBio). For Fabs, biotinylated proteases were immobilized on streptavidin biosensors, and Fab binding to the sensors in absence of protease was monitored as backgrounds. For IgGs, protein A sensors were used and protease bindings without IgG were checked as backgrounds. kon and koff were determined for KD calculations. […] Fab in vitro stability was tested by incubating 1 μM Fab with 1 μM of the respective protease in the assay buffer for 12 hours and the samples were analyzed by SDS-PAGE.

[14] = target: T5, BACE1; test: FRET peptide inhibition assay, BACE1 (M-2420); type: biochemical; settings: IgG format; BACE-1, FRET peptide
Procedure: (§3) For inhibition tests, 1 μM Fabs were 2-fold serially diluted into protease specific assay buffer and incubated with 1-10 nM proteases for 30 min at room temperature. […] Inhibition percentages at given concentrations were calculated by comparing the initial reaction rates in the presence or absence of inhibitor. IC50 was determined as the concentration that achieved 50% inhibition, and KI values were calculated using KI=IC50/(S/Km+1). Vmax and Km at various Fab concentrations were measured to determine the inhibition type. FRET inhibition assays were also used for selectivity tests of isolated Fabs with the relevant proteases.

[15] = target: T6, BACE2 (Homo sapiens, UniProt Q9Y5Z0); test: FRET inhibition selectivity test, BACE2; type: biochemical; settings: IgG
T6 sequence (Q9Y5Z0 63-518): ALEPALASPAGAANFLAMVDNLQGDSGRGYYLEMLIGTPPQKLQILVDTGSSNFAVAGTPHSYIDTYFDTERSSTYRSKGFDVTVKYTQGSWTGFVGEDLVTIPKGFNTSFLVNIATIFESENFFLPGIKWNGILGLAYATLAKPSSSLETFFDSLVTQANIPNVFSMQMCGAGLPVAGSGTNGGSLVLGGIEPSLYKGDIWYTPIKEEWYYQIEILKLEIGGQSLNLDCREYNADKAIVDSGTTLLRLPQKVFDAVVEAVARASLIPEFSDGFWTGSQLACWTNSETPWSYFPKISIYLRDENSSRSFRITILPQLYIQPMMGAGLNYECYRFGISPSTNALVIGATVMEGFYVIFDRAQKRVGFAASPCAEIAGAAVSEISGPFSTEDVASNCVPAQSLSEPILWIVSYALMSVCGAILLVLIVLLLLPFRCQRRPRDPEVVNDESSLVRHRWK
Procedure: as §3

“nTIMP-1: N-terminal domain of tissue inhibitor of metalloproteinases 1, endogenous inhibitor of MMPs” gave a Kd [1] of 500 nM.

With “nTIMP-2: N-terminal domain of tissue inhibitor of metalloproteinases 2, endogenous inhibitor of MMPs” the Kd [1] was 290 nM.

B1: Fab LH11: anti-MMP-12 antibody clone; VL SEQ ID NO:124, VH SEQ ID NO:126, CDR-H3 SEQ ID NO:129 (antibody, V domains shown)
VH: EVQLVESGGGLVQPGGSLRLSCAASGFNLSYYSMHWVRQAPGKGLEWVAYIYPYYGSTYYADSVKGRFTISADTSKNTAYLQMNSLRAEDTAVYYCARFLLSIGKLFVGDGSILHVWLYGMDYWGQGTLVTVSSAS
VL: DIQMTQSPSSLSASVGDRVTITCRASQSVSSAVAWYQQKPGKAPKLLIYSASSLYSGVPSRFSGSRSGTDFTLTISSLQPEDFATYYCQQAYYGYLFTFGQGTKVEIKR
For B1, the “Type of inhibition (Lineweaver-Burk)” value [2] was “substrate competitive manner”, the “Inhibition FRET peptide” value [3] was “non-” and the “Inhibition of elastin-FITC hydrolysis” value ([4]; 2 nM Fab) was 0%. For the same molecule, the “Inhibition of elastin-FITC hydrolysis” value ([4]; 16 nM Fab) was 49%, the “Inhibition of elastin-FITC hydrolysis” value ([4]; 63 nM Fab) was 62% and the “Inhibition of elastin-FITC hydrolysis” value ([4]; 500 nM Fab) was 86%. For the same molecule, the “Fibronectin remaining after cdMMP-12 wt hydrolysis” value [5] was “significant amounts of fibronectin remained”, the “Inhibition of MMP-1 (selectivity)” value [6] was “did not inhibit and non-” and the “Inhibition of MMP-7 (selectivity)” value [7] was “did not inhibit and non-”. The Ki [8] was 6200 nM, the Kd [9] was 740 nM and the “Degradation of Fab by cdMMP-12 D4” value [10] was “no significant degradation”. The “Fab remained intact after exposure to cdMMP-12 wt” value [11] was 67% and the Kd [12] was about 700 nM.

B2: IgG B3B12: anti-BACE1 inhibitory Fab B3B12 converted into IgG format (antibody, V domains shown)
VH: EVQLVESGGGLVQPGGSLRLSCAASGFNIPYSSMHWVRQAPGKGLEWVASISSYSSSTSYADSVKGRFTISADTSKNTAYLQMNSLRAEDTAVYYCARYICGHRWRDFDMWRARTGVNYAMDYWGQGTLVTVSSAS
VL: DIQMTQSPSSLSASVGDRVTITCRASQSVGTYLNWYQQKPGKAPKLLIYATSNLRSGVPSRFSGSGSGTDFTLTISSLQPEDFATYYCQQSYSIPRFTFGPGTKLEIKR
With B2 the “Binding Affinity KD (associated IgG, in parentheses)” value [13] was 7 nM, the “Inhibition Potency KI (associated IgG, in parentheses)” value [14] was 13 nM and the “Inhibition of BACE2 (selectivity)” value [15] was “but not BACE2”.
